Paper doi:10.1101/625327

Experiments:
Test in all cases: SPR
M/N120 = M/N120 (UniProt Q9UBB5)
M/N20 = M/N20 (UniProt Q9UBB5)
M/N60 = M/N60 (UniProt Q9UBB5)

- Kd (M/N120): 3 nM
- Kd (M/N20): 3 nM
- Kd (M/N60): 3 nM
Substance: P15 (from UniProt Q86YP4 137-178) (domain or fragment)
